# Measured values published in patent US20220153851A1 (Five Prime, published 2022).
# How the values were obtained:
# [1] = target: T1, human CSF1R on CSF1R (SEQ ID NO: 2)-transfected CHO cells (human, UniProt P07333 20-972); assay: cell-based or functional assay
# [2] = target: T2, cynoCSF1R ECD-Fc (cynomolgus); assay: competition ELISA, blocking of human CSF1 binding to cynoCSF1R ECD-Fc
# T2 construct: also called cynomolgus CSF1R ECD
# Method: The humanized antibodies, along with the parental chimeric antibodies (cAbs), were tested for their ability to block human CSF1 binding to human and cynomolgus CSF1R ECD, as follows.
# (§1) Recombinant Human CSF1 (M-CSF; R&D Systems) was biotinylated using an NH₂-Biotin Labeling Kit (Dojindo Molecular Technologies). One hundred μl of 1 μg/ml biotinylated CSF1 in PBST/0.1% BSA was added to the wells of Reacti-Bind Streptavidin coated plates (Pierce) pre-blocked with SuperBlock blocking buffer (Pierce) according to the manufacturer's instructions. Fifty μl of 0.5× serial dilutions of the humanized antibody or parental chimeric antibody, beginning with 2000 ng/ml, was incubated with 50 ng/ml hCSF1R ECD.506-Fc (SEQ ID NO: 6; FivePrime Therapeutics) or 50 ng/ml cynoCSF1R ECD-Fc (FivePrime Therapeutics, SEQ ID NO: 8, but without the 19 amino acid leader sequence) in 100 μl PBST/0.1% BSA for 90 min at RT, after which the admix was transferred to one or more wells of a ligand-coated plate. After 90 min at RT, wells were washed with PBST, and a 1:5000 dilution of an Fc-fragment-specific peroxidase-conjugated goat anti-human IgG (Jackson Immuno Research) in PBST/0.1% BSA was added to each well. After incubation at RT for 60 min, wells were washed with PBST/0.1% BSA, and o-phenylenediamine dihydrochloride peroxidase substrate (Sigma) was added to each well. After incubation at RT for 30 min, A450 values of each well were read directly on a SpectraMaxPlus spectrophotometer with SoftMaxPro software (Molecular Devices).
# [3] = target: T2, cynoCSF1R ECD-Fc; assay: competition ELISA, blocking of human IL34 binding to cynoCSF1R ECD-Fc (curve-fit value far beyond the range tested); blocking of human IL34 binding to cynoCSF1R ECD
# Method: Recombinant Human CSF1 (M-CSF; R&D Systems) was biotinylated using an NH₂-Biotin Labeling Kit (Dojindo Molecular Technologies). One hundred μl of 1 μg/ml biotinylated CSF1 in PBST/0.1% BSA was added to the wells of Reacti-Bind Streptavidin coated plates (Pierce) pre-blocked with SuperBlock blocking buffer (Pierce) according to the manufacturer's instructions. […] After incubation at RT for 30 min, A450 values of each well were read directly on a SpectraMaxPlus spectrophotometer with SoftMaxPro software (Molecular Devices).
# The humanized antibodies were tested for their ability to block human IL34 binding to human CSF1R ECD. The blocking activity of each humanized antibody was determined as described above for blocking of CSF1, except recombinant human IL34 (FivePrime Therapeutics; SEQ ID NO: 68) was biotinylated using an NH2-Biotin Labeling Kit (Dojindo Molecular Technologies), and then 100 μl of 1 μg/ml biotinylated recombinant IL34 in PBST/0.1% BSA was added to the wells of Reacti-Bind Streptavidin coated plates (Pierce) pre-blocked with SuperBlock blocking buffer (Pierce) according to the manufacturer's instructions.
# [4] = target: T3, mCSF1R ECD-Fc (mouse); assay: ELISA, plate coated with mCSF1R ECD-Fc, detection anti-human kappa-HRP, A450
# T3 construct: also called mouse CSF1R ECD
# T3 sequence (chain, as listed by the source limits assumed): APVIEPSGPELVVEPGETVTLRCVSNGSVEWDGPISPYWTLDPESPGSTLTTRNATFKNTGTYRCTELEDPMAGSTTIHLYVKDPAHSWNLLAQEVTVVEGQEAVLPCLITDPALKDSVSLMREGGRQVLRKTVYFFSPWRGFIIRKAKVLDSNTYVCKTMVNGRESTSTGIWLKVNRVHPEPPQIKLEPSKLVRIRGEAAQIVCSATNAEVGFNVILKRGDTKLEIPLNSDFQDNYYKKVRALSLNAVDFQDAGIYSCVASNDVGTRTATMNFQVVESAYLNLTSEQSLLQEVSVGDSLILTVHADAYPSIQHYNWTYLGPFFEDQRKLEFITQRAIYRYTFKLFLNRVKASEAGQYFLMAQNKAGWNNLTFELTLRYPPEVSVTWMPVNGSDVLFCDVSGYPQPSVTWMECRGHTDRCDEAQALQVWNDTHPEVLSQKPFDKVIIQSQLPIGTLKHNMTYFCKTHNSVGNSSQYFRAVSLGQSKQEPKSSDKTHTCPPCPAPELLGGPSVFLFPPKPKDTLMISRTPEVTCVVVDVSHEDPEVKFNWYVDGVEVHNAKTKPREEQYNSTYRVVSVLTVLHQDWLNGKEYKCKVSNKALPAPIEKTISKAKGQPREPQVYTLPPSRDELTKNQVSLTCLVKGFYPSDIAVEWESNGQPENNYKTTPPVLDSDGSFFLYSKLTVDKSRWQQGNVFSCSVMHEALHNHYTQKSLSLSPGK
# Method: (§2) Ninety-six well clear-bottom ELISA plates were coated overnight with 1 μg/ml recombinant hCSF1R ECD.506-Fc (SEQ ID NO: 6; FivePrime Therapeutics) or Human M-CSF R Fc Chimera (R&D Systems) in PBS. The next morning, wells were washed four times with 0.05% Tween20 in PBS (PBST) and blocked with Blocker-Blotto (Pierce). Fifty μl of 0.5× serial dilutions of the humanized antibody or parental chimeric antibody, beginning with 2000 ng/ml, diluted 1:1 in Blocker-Blotto were added to the CSF1R-coated wells. After incubation at room temperature (RT) for 90 min, wells were washed four times with PBST, and a 1:5000 dilution of a peroxidase-conjugated Goat anti-Human kappa Light chain antibody (Sigma) in Blocker-Blotto was added to each well. After incubation at RT for 60 min, wells were washed four times with PBST, and 50 μl o-phenylenediamine dihydrochloride peroxidase substrate (Sigma) was added to each well. After incubation at RT for 30 min, A450 values of each well were read directly on a SpectraMaxPlus spectrophotometer with SoftMaxPro software (Molecular Devices).
# (§3) The binding curve for each humanized antibody binding to mouse CSF1R ECD was determined as described above for human CSF1R, except the wells of the clear-bottom ELISA plates were coated overnight with 2 μg/ml recombinant mCSF1R ECD-Fc (FivePrime Therapeutics, SEQ ID NO: 93).
# [5] = target: T1, human CSF1R on CSF1R (SEQ ID NO: …); assay: cell-based or functional assay; remark: listed apart in the source
# [6] = target: T4, hCSF1R ECD.506 (human, UniProt P07333 20-506); assay: SPR Biacore T100, antibody captured on anti-human IgG, hCSF1R ECD.506 as analyte, 1:1 model
# T4 construct: also called human CSF1R ECD
# T4 sequence (P07333 20-506): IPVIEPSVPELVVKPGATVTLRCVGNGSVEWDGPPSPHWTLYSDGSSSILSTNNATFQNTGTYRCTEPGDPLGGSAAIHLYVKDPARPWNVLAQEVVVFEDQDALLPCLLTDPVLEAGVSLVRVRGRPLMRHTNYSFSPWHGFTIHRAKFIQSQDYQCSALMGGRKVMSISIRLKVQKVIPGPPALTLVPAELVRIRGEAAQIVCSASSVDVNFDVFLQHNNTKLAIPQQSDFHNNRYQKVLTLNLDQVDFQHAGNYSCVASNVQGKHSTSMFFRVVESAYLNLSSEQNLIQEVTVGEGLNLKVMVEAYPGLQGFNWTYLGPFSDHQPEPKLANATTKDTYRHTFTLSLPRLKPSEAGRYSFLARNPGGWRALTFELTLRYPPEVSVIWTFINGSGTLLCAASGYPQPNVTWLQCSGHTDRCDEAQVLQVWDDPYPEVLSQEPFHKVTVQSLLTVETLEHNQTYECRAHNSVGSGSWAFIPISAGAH
# Method: The kₐ, kd, and KD for binding to human CSF1R ECD was determined for each of the humanized antibodies as follows.
# Binding kinetics of anti-CSF1R humanized antibodies to CSF1R ECD was determined using Biacore T100 Surface Plasmon Resonance (SPR) (GE Healthcare Life Sciences, Piscataway, N.Y.). Each of the humanized anti-CSF1R antibodies was captured on a CM5 sensor chip immobilized with anti-Human IgG antibody using the Human antibody capture kit (GE Healthcare Life Sciences, Piscataway, N.Y.) at 150 RU so that the Rmax value for hCSF1R ECD.506 (SEQ ID NO: 5) binding was 100 RU. Rmax values of less than 150 RU are recommended for accurately determining kinetic values. […] The association constant, dissociation constant, affinity, and binding capacity of each of the Fabs for human CSF1R ECD was calculated using the Biacore T100 Evaluation software package using the 1:1 binding model.
# [7] = target: T1, human CSF1R on CSF1R (SEQ ID NO: …); assay: cell-based or functional assay; remark: listed apart in the source
# [8] = target: T5, hCSF1R ECD.506-Fc (human); assay: ELISA, plate coated with human CSF1R ECD-Fc
# T5 construct: also called human CSF1R ECD-Fc fusion protein; human CSF1R ECD
# T5 sequence (chain, as listed by the source limits assumed): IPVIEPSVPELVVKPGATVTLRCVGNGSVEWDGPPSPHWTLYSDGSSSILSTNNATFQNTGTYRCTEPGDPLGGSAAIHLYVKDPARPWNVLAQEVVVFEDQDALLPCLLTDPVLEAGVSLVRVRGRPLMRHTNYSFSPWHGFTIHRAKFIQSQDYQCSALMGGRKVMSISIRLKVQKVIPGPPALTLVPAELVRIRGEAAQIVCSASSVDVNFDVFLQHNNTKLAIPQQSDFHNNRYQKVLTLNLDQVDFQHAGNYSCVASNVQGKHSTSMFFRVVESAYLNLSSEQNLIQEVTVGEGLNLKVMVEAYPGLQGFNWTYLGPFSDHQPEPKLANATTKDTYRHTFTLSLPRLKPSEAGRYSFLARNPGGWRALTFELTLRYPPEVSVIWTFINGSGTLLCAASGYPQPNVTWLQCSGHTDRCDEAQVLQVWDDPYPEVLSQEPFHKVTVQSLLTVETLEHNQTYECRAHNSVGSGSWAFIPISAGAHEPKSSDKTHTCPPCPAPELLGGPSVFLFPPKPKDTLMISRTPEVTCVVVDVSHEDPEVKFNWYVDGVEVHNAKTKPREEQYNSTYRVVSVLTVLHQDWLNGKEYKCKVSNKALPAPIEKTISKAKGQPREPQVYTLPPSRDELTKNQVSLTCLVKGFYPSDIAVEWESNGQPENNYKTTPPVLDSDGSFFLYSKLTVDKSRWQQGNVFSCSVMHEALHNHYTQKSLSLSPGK
# Method: as §2
# [9] = target: T2, cynoCSF1R ECD-Fc; assay: ELISA, plate coated with cynoCSF1R ECD-Fc
# Method: as §2
# as §3, with “cynomolgus” for “mouse”, “cynoCSF1R” for “mCSF1R”, “8, but without the 19 amino acid leader sequence).” for “93).”
# [10] = target: T2, cynoCSF1R ECD-Fc; assay: competition ELISA, blocking of human CSF1 binding to cynoCSF1R ECD-Fc (curve-fit value beyond the range tested)
# Method: as §1
# [11] = target: T2, cynoCSF1R ECD-Fc; assay: competition ELISA, blocking of human IL34 binding to cynoCSF1R ECD-Fc
# T1 sequence (P07333 20-972): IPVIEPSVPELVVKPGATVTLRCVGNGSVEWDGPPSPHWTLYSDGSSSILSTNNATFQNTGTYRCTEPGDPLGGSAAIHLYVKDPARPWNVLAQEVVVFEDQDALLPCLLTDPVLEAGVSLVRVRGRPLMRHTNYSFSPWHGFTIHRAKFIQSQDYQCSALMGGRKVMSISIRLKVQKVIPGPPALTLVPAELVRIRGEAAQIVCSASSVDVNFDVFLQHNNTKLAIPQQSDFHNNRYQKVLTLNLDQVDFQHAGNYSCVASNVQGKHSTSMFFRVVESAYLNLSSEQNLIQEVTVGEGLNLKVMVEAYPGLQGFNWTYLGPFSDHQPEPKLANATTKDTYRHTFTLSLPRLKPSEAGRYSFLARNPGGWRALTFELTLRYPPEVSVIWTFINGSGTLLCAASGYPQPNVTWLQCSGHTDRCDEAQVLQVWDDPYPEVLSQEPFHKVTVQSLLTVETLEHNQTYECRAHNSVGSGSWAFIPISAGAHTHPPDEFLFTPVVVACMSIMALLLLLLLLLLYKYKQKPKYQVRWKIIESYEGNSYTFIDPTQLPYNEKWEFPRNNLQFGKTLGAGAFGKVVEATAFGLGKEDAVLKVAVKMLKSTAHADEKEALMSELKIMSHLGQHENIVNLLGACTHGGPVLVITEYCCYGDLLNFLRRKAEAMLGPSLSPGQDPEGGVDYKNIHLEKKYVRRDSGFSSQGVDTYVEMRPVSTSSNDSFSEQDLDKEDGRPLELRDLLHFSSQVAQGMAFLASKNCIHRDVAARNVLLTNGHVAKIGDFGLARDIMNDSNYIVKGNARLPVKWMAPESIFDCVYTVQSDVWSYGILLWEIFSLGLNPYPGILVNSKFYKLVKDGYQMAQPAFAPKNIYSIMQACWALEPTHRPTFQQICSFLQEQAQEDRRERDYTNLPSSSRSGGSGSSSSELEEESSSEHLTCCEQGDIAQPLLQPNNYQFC
# T2 sequence (chain, as listed by the source): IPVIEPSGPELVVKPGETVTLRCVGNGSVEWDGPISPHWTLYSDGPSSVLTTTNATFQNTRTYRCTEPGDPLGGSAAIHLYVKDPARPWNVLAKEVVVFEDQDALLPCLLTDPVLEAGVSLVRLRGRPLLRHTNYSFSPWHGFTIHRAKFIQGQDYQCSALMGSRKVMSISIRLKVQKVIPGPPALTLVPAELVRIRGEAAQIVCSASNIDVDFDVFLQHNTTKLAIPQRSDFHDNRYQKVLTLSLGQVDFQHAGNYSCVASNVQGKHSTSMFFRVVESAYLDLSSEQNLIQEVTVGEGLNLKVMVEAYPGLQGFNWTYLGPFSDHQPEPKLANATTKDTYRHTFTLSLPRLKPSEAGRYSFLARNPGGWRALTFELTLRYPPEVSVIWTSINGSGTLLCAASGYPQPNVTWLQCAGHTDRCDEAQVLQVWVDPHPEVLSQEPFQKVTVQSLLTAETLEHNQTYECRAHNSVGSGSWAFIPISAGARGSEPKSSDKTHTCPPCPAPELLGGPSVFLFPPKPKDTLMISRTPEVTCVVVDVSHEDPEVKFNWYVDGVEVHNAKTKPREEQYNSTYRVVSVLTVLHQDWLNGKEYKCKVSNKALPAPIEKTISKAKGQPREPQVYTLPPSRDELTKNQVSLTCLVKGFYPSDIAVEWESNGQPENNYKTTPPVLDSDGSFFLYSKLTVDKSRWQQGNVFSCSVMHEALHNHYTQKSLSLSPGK
"IC50, inhibition of CSF1-induced CSF1R phosphorylation (head prints 'Human CSF1/Human CSF1R ECD IC50') [1] [µg/mL]","IC50, inhibition of IL34-induced CSF1R phosphorylation (head prints 'Human IL34/Human CSF1R ECD IC50') [1] [µg/mL]",IC50 [2] [µg/mL],IC50 [3] [µg/mL],binding result [4],"IC50 (read off the curve), CSF1-induced CSF1R phosphorylation [5] [µg/mL]",Kd [6] [pM],koff [6] [s⁻¹],kon [6] [M⁻¹ s⁻¹],"IC50 (read off the curve), IL34-induced CSF1R phosphorylation [7] [µg/mL]",EC50 [8] [µg/mL],EC50 [9] [µg/mL],IC50 [10] [µg/mL],IC50 [11] [µg/mL],Binder
0.928,0.615,0.0155,> 2,no binding (tested: 2000 ng/ml),~1,1040,0.00369,3.54e+06,~0.6,0.0146,0.467,,,"h0302-L0H1 (antibody, human IgG4 S228P, kappa, V domains shown, also called Ab7; huAb 0302-L0H1) VH: QVQLVQSGAEVKKPGSSVKVSCKASGYTFSDFNIHWVRQAPGQGLEWMGYINPYTDVTVYNEKFKGRVTITSDKSTSTAYMELSSLRSEDTAVYYCASYFDGTFDYALDYWGQGTLVTVSS VL: EIVLTQSPATLSLSPGERATLSCRASESVDNYGLSFMNWYQQKPGQAPRLLIYTASNLESGIPARFSGSGSGTDFTLTISSLEPEDFAVYYCQQSKELPWTFGQGTKVEIKR"
0.384,0.303,,,no binding (tested: 2000 ng/ml),,570,0.000914,1.6e+06,,0.00774,0.066,89.8,0.509,"h0302-L2H1 (antibody, human IgG4 S228P, kappa, V domains shown, also called Ab9; huAb 0302-L2H1) VH: QVQLVQSGAEVKKPGSSVKVSCKASGYTFSDFNIHWVRQAPGQGLEWMGYINPYTDVTVYNEKFKGRVTITSDKSTSTAYMELSSLRSEDTAVYYCASYFDGTFDYALDYWGQGTLVTVSS VL: EIVVTQSPATLSLSPGERATLSCRASESVDNYGLSFMNWFQQKPGQAPRLLIYTASNLESGIPARFSGSGSRTDFTLTISSLEPEDFAVYYCQQSKELPWTFGQGTKVEIKR"
